Data from article PMC5537299, “Spatial structure of TLR4 transmembrane domain in bicelles provides the insight into the receptor activation mechanism” (Scientific Reports, 2017).
Values joined by “and” are separate entries in the source; they are usually repeats but may differ in a detail not shown here. Identical values can stand only once.

Assays:
[1] = target: TLR4-TMICL (transmembrane domain and whole intracellular linker region of human TLR4, residues 624-670) (human); experiment: NMR titration; 1H,15N-TROSY spectra at various lipid(detergent)-to-protein ratios (LPR) in DPC micelles; populations of the states from cross-peak intensities; 45 °C; 20 mM phosphate buffer pH 6.0-6.5; monomer, dimer and higher oligomer
[2] = target: His657 (UniProt position 657, …); experiment: NMR; settings: 45 °C (Methods: all NMR experiments), supplementary figure captions for the same samples state 40 °C, not stated (20 mM phosphate, no added salt mentioned), Monomeric, helical, membrane-mimetic-embedded TLR4-TMICL in anionic bicelles
[3] = target: the molecule itself; experiment: NMR titration; 1H,15N-TROSY spectra at various lipid(detergent)-to-protein ratios (LPR) in DPC micelles; populations of the states from cross-peak intensities; 45 °C; 20 mM phosphate buffer pH 6.0-6.5; monomer, dimer and higher oligomer

TLR4-TMICL (transmembrane domain and whole intracellular linker region of human TLR4, residues 624-670) (domain or fragment)
stoichiometry N [1]: 2 and 3

MNITSQMNKTIIGVSVLSVLVVSVVAVLVYKFYFHLLMLAGCIKYGRG
pKa [2]: 6.16 ± 0.02

B1: TLR4-TM (transmembrane domain of human TLR4 with the truncated ICL region, residues 624-657) (domain or fragment)
chain: MNITSQMNKTIIGVSVLSVLVVSVVAVLVYKFYFH
notes: not part of the stated range 624-657; human TLR4, predicted (UniProt) transmembrane and several juxtamembrane residues 624-657; 35 residues as printed; uniformly 13C/15N-labelled for NMR; cloned into pET22b by NdeI and HindIII; also called TLR-TM; source: continuous exchange cell-free expression (S30 extract of E. coli Rosetta(DE3)pLysS), as a precipitate; purified by size-exclusion …
stoichiometry N [3]: 2 and 3
